System: MS2 coat protein
Test: apparent KD of MS2 coat protein; designed switch direction (-1 OFF switch, 1 ON switch): -1; higher = weaker reporter binding
In short: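 Designed RNA switches with common flanks were transcribed on Illumina chips by stalled E. coli RNA polymerase and titrated with SNAP-549-labelled MS2 coat protein, from 0.7 or 1.5 nM doubling to 3 µM, in Tris-HCl pH 7.5 buffer with KCl, MgCl2, BSA, DTT, tRNA and Tween-20. Steps lasted 0.8–1.5 h (lowest) to 10–20 min (highest). Titrations ran without input, with 200 uM small-molecule ligand, or with an oligonucleotide input. Normalised cluster fluorescence was curve-fitted, and apparent KD is the per-design median over clusters.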

[1] = Eterna round: R95, input ligand: FMN 200 uM
[2] = Eterna round: R95, input ligand: microRNA oligo, concentration not stated
[3] = Eterna round: R95, input ligand: none
[4] = input ligand: microRNA oligo, concentration not stated

AUACCAUGCCGCCUAAUAGCUUUUUGCCCGUCUUAUAAAACAUGAGGAUCACCCAUGUAAAACUCGUGGCGUGACCC [Quarre] (puzzle: Sensor v3, turn-off variant 2)
apparent KD of MS2 coat protein [1]: 156 nM
apparent KD of MS2 coat protein [2]: 21.9 nM
apparent KD of MS2 coat protein [3]: 195 nM

AUAGGCCGAGGAUAUGUAGCUAUGAACAUGAGGAUCACCCAUGUGAGUGUCGUGCGUAUUAUAGAAGGCGGUGCAU [EX5 B.14] (Eterna round: R97, puzzle: Exclusion 5)
apparent KD of MS2 coat protein (input ligand: FMN 200 uM): 17 nM
apparent KD of MS2 coat protein (input ligand: none): 16.1 nM

AUAUAAACAUAGGAUAUCGAAUUUAUCAUUUAACGAGAAGGAUGAACAUGAGGAUCACCCAUGUGGUAUCAUGG [Mat - Exclusion 6 - JL Mod - D5] (puzzle: Exclusion 6)
apparent KD of MS2 coat protein [1]: 553 nM
apparent KD of MS2 coat protein [2]: 333 nM
apparent KD of MS2 coat protein [3]: 340 nM

AUAUAGUGAGGAUAUACAUGAGGAUCACCCAUGUGGUAGUAGAUACAGUAGAGAUAGAGUAGAAGGCACGAUGA [EX3 #26] (Eterna round: R97, puzzle: Exclusion 3)
apparent KD of MS2 coat protein (input ligand: FMN 200 uM): 197 nM
apparent KD of MS2 coat protein (input ligand: none): 68 nM

AUAUAGUGAGGAUAUCCAAUAUAUGACAUGAGGAUCACCCAUGUUUCCACUCGUACCUCCGGAGAAGGCACAUUUU [Ex5 #65] (Eterna round: R97, puzzle: Exclusion 5)
apparent KD of MS2 coat protein (input ligand: FMN 200 uM): 27.2 nM
apparent KD of MS2 coat protein (input ligand: none): 27.6 nM

AUAUUAACAUAGGAUAUCGAAUAAAUUAUUUAACGAGAAGGAUGAACAUGAGGAUCACCCAUGUGGUAUCAUGG [Mat - Exclusion 6 - JL Mod - D29] (puzzle: Exclusion 6)
apparent KD of MS2 coat protein [1]: 153 nM
apparent KD of MS2 coat protein [2]: 236 nM
apparent KD of MS2 coat protein [3]: 411 nM

AUCAGCUCGUGAGGAUAUGAACAUGAGGAUCACCCAUGUAAGAUCAAGCUGCUUCGGCAGCAAGUUCAGAAGGCACGAGCUGAU [ENG2/10-A3] (Eterna round: R96, puzzle: Exclusion NG 2)
apparent KD of MS2 coat protein (input ligand: FMN 200 uM): 182 nM
apparent KD of MS2 coat protein [4]: 84 nM
apparent KD of MS2 coat protein (input ligand: none): 156 nM

AUCAGCUCGUGAGGAUAUGCACAUGAGGAUCACCCAUGUAAGAUCAAGCUGCUUCGGCAGCAAGUGCAGAAGGCACGAGCUGAU [ENG2/9-A2] (Eterna round: R96, puzzle: Exclusion NG 2)
apparent KD of MS2 coat protein (input ligand: FMN 200 uM): 186 nM
apparent KD of MS2 coat protein [4]: 132 nM
apparent KD of MS2 coat protein (input ligand: none): 182 nM

AUCAUGUAAGGAUAUCGUGCAAGUUUCAAAAGAGGCUUGUGCGAGAAGGUACAUGAGGAUCACCCAUGUAGGUU [Omei Ex4 B10] (Eterna round: R97, puzzle: Exclusion 4)
apparent KD of MS2 coat protein (input ligand: FMN 200 uM): 57.8 nM
apparent KD of MS2 coat protein (input ligand: none): 584 nM

AUCAUGUAAGGAUAUCUGACAUGUGACUUCGGUCACUGUUCAGAGAAGGUACAUGAGGAUCACCCAUGUAGAAC [Ex4-3: 44] (puzzle: Exclusion 4)
apparent KD of MS2 coat protein [2]: 59.6 nM

AUCAUGUCAGGAUAUCUGAUAUGGAUCUUCGGAUCAAGUUCAGAGAAGGGACAUGAGGAUCACCCAUGUCGAAC [Ex4-3: 31] (puzzle: Exclusion 4)
apparent KD of MS2 coat protein [2]: 25.6 nM

AUCCUGAGGCUUUGCUUUAGGCGUACAUGAGGAUCACCCAUGUAGGAUAUGGUAGGCUUUGCUUACCAGAAGGACAUUAUGAUC [JL EXNG3 1.19] (Eterna round: R96, puzzle: Exclusion NG 3)
apparent KD of MS2 coat protein (input ligand: FMN 200 uM): 243 nM
apparent KD of MS2 coat protein [4]: 44.1 nM
apparent KD of MS2 coat protein (input ligand: none): 43 nM

AUCGUGAAGAAGGAUAUGGGCCCGGUAAAACGACUAGAAGGUCUGACAUGAGGAUCACCCAUGUGAUACCAAAA [Veve] (puzzle: Exclusion 6)
apparent KD of MS2 coat protein [1]: 34.1 nM
apparent KD of MS2 coat protein [2]: 42.9 nM
apparent KD of MS2 coat protein [3]: 35.3 nM

AUCGUGCAGCUUUGCUGUACGAGUACAUGAGGAUCACCCAUGUAGGAUAUGGUACGCUUUGCGUGCUAGAAGGAUAUGAGUAGG [EX ENG3 1.42] (Eterna round: R96, puzzle: Exclusion NG 3)
apparent KD of MS2 coat protein (input ligand: FMN 200 uM): 84.3 nM
apparent KD of MS2 coat protein [4]: 43 nM
apparent KD of MS2 coat protein (input ligand: none): 48.3 nM

Source: the supplement of paper PMC9170038
